Assay results taken from publication PMC11998487 (2025).

Target: T1, EV71-VP1-His (enterovirus 71 (EV71), UniProt Q66478 566-862, RED-tris-NTA dye on the His tag (in the MST only))
T1 chain: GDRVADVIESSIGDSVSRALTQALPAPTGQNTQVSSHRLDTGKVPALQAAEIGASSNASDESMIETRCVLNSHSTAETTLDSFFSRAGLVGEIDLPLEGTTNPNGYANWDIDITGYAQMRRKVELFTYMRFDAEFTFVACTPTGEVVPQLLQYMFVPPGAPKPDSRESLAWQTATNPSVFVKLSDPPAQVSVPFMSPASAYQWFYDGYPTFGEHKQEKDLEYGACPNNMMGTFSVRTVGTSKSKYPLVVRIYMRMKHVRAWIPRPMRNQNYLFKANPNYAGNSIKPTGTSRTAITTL
Experiment: MST

B1: ZYG11B 1–58-GST (domain or fragment)
chain: MPEDQAGAAMEEASPYSLLDICLNFLTTHLEKFCSARQDGTLCLQEPGVFPQEVADRL
- Kd: 5.55 µM
